Here are results for 2 molecules from article PMC4997814.

The target of one test is CYP3A4 Supersomes (UniProt P08684).
A further test addresses CYP2C8 Supersomes (UniProt P10632).
The target in a further test is T1, Recombinant CYP26B1 (UniProt Q9NR63).
T1 sequence: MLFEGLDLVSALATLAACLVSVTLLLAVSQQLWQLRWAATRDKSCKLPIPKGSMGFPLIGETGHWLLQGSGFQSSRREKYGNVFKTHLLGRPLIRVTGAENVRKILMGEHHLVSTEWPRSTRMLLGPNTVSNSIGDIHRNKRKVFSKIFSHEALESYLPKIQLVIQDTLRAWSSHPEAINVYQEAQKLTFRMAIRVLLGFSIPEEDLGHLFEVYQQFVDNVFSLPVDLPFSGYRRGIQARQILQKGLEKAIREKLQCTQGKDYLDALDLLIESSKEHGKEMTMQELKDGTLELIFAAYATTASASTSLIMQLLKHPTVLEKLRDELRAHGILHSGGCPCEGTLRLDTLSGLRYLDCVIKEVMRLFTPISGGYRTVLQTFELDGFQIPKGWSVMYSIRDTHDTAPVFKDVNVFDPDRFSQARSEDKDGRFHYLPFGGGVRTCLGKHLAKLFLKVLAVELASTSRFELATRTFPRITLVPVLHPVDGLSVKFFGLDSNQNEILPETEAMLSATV

Chain of UniProt P10632 (P10632 whole entry): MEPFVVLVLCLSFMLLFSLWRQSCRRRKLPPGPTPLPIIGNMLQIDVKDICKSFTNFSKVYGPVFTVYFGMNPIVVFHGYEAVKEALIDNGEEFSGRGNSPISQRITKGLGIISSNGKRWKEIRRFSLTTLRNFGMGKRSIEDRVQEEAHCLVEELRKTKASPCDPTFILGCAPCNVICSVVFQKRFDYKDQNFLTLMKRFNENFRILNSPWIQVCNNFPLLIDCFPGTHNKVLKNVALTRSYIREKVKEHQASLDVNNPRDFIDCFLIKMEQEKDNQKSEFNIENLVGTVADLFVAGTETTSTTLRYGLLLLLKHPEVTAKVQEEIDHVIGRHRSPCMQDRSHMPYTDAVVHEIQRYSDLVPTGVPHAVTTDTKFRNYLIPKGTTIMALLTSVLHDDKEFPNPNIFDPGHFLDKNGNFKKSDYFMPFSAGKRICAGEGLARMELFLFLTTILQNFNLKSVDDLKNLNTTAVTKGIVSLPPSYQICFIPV
Chain of UniProt P08684 (P08684 whole entry): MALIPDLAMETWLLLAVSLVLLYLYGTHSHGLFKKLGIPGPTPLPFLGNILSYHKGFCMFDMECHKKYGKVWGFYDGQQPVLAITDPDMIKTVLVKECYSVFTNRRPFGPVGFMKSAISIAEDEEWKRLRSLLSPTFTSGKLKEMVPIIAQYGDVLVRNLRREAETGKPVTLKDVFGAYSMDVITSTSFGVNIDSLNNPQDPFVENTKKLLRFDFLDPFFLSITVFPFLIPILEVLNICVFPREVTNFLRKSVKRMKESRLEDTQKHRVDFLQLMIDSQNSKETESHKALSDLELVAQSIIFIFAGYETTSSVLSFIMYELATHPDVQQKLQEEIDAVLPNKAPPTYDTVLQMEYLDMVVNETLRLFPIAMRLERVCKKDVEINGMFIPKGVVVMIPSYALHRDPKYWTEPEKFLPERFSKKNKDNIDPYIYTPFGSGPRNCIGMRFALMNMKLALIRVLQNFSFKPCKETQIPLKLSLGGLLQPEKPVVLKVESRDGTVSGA

In turn, “Cellular retinoic acid binding protein I (CRABP-I) (from UniProt P29762 1-137) (natural protein)” came in with a decrease of 4-OH-RA formation by CYP3A4 with 1 uM holo-CRABP-I against free atRA with CYP3A4 Supersomes of 98%. Besides, the decrease of 4-OH-RA formation by CYP2C8 with 1 uM holo-CRABP-I against free atRA with CYP2C8 Supersomes came out at 98%. The apparent Km of 4-OH-RA formation by CYP26B1 with holo-CRABP-I as substrate with Recombinant CYP26B1 came out at 0.0217 µM.

B1: Cellular retinoic acid binding protein II (CRABP-II) (natural protein)
chain: MPNFSGNWKIIRSENFEELLKVLGVNVMLRKIAVAAASKPAVEIKQEGDTFYIKTSTTVRTTEINFKVGEEFEEQTVDGRPCKSLVKWESENKMVCEQKLLKGEGPKTSWTRELTNDGELILTMTADDVVCTRVYVRE
B1: in the test with Recombinant CYP26B1, the apparent Km of 4-OH-RA formation by CYP26B1 with holo-CRABP-II as substrate came out at 0.0243 µM.
